These results are taken from PMC8167854, “Transfer of stabilising mutations between different secondary active transporter families” (FEBS Open Bio, 2021).

First the molecules themselves.
B1: AtBOR1 M363Y (natural protein)
chain: not shown
notes: BOR1 borate transporter of Arabidopsis thaliana with the point mutation M363Y, made on the AtBOR1 WT gene; Expressed from pDDGFP-2 with a TEV-cleavable C-terminal yEGFP His-tag; tag removed with TEV protease before SEC; source: S. cerevisiae FGY217, purified in DDM (His-Trap, TEV cleavage, reverse IMAC, Superdex 200); not shown: yEGFP, C-terminal, cleaved; His-tag, C-terminal, cleaved
B2: AtBOR1 M363F (natural protein)
chain: not shown
notes: BOR1 borate transporter of Arabidopsis thaliana with the point mutation M363F, made on the AtBOR1 WT gene; Expressed from pDDGFP-2 with a TEV-cleavable C-terminal yEGFP His-tag; tag removed with TEV protease before SEC; source: S. cerevisiae FGY217, purified in DDM (His-Trap, TEV cleavage, reverse IMAC, Superdex 200); not shown: yEGFP, C-terminal, cleaved; His-tag, C-terminal, cleaved
B3: Arabidopsis thaliana boron transporter 1 (AtBOR1), wild-type (natural protein)
chain: not shown
notes: BOR1 borate transporter of Arabidopsis thaliana (SLC4 family), full-length wild type; Expressed from pDDGFP-2 with a TEV-cleavable C-terminal yEGFP His-tag; also called WT AtBOR1; AtBOR1 WT; source: S. cerevisiae FGY217, purified in DDM (His-Trap, TEV cleavage, reverse IMAC, Superdex 200); not shown: yEGFP, C-terminal, cleaved; His-tag, C-terminal, cleaved

This data set concerns the molecule itself. Description: SDS/PAGE of SEC fractions, bands identified by mass spectrometry; protein purified in 0.03% DDM, eluted from Superdex 200 10/300 in 20 mM Tris/HCl pH 7.5, 150 mM NaCl; fractions on a 12% Tris-Glycine SDS/PAGE gel; monomer and dimer bands.
On to B1, for which the binding result is on record as “binds”.
Regarding B2, the binding result is “binds”.
The result for B3 reads “binds”.
